The values that follow come from paper doi:10.1101/2021.04.01.437949 (bioRxiv, 2021).

T1: TAP-tagged Kap120 (S. cerevisiae, UniProt Q02932 1-1032)
T1 sequence (looked up): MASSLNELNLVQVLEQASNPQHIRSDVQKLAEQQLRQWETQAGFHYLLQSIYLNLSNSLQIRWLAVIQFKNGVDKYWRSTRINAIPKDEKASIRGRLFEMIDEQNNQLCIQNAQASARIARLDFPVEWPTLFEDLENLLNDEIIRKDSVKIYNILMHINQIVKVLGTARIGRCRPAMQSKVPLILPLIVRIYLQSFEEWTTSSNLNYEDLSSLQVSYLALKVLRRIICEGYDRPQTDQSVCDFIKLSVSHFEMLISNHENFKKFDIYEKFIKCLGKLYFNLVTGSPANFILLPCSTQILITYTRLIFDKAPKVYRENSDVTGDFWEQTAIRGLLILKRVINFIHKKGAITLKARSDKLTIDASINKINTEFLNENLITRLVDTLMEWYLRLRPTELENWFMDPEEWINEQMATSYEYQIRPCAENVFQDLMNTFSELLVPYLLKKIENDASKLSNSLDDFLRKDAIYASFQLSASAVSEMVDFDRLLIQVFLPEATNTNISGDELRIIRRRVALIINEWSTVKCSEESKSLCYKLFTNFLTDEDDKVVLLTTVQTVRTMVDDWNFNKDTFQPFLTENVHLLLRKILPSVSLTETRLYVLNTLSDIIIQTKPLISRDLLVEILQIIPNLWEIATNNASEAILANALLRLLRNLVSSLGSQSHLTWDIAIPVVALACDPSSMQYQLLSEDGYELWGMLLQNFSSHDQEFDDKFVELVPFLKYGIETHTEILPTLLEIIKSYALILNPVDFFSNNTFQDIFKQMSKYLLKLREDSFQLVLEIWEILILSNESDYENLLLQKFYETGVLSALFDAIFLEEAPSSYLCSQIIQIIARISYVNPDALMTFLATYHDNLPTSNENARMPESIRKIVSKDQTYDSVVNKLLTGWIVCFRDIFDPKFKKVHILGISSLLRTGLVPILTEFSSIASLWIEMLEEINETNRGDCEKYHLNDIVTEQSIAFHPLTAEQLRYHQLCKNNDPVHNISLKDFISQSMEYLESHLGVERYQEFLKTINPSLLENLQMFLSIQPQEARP

B1: Dhh1 (natural protein, S. cerevisiae (endogenous in yeast), UniProt P39517 1-506, looked up)
chain: MGSINNNFNTNNNSNTDLDRDWKTALNIPKKDTRPQTDDVLNTKGNTFEDFYLKRELLMGIFEAGFEKPSPIQEEAIPVAITGRDILARAKNGTGKTAAFVIPTLEKVKPKLNKIQALIMVPTRELALQTSQVVRTLGKHCGISCMVTTGGTNLRDDILRLNETVHILVGTPGRVLDLASRKVADLSDCSLFIMDEADKMLSRDFKTIIEQILSFLPPTHQSLLFSATFPLTVKEFMVKHLHKPYEINLMEELTLKGITQYYAFVEERQKLHCLNTLFSKLQINQAIIFCNSTNRVELLAKKITDLGYSCYYSHARMKQQERNKVFHEFRQGKVRTLVCSDLLTRGIDIQAVNVVINFDFPKTAETYLHRIGRSGRFGHLGLAINLINWNDRFNLYKIEQELGTEIAAIPATIDKSLYVAENDETVPVPFPIEQQSYHQQAIPQQQLPSQQQFAIPPQQHHPQFMVPPSHQQQQAYPPPQMPSQQGYPPQQEHFMAMPPGQSQPQY
B2: Tail-GFP (Xrn1 Tail, amino acids 351-521, fused to GFP) (domain or fragment, S. cerevisiae, UniProt P22147 351-521, looked up)
chain: EKDDIDVEWFNKQLENISLEGERKRQRVGKKLLVKQQKKLIGSIKPWLMEQLQEKLSPDLPDEEIPTLELPKDLDMKDHLEFLKEFAFDLGLFITHSKSKGSYSLKMDLDSINPDETEEEFQNRVNSIRKTIKKYQNAIIVEDKEELETEKTIYNERFERWKHEYYHDKLK
B3: Pat1 (natural protein, S. cerevisiae (endogenous in yeast), UniProt P25644 1-796, looked up)
chain: MSFFGLENSGNARDGPLDFEESYKGYGEHELEENDYLNDETFGDNVQVGTDFDFGNPHSSGSSGNAIGGNGVGATARSYVAATAEGISGPRTDGTAAAGPLDLKPMESLWSTAPPPAMAPSPQSTMAPAPAPQQMAPLQPILSMQDLERQQRQMQQQFMNFHAMGHPQGLPQGPPQQQFPMQPASGQPGPSQFAPPPPPPGVNVNMNQMPMGPVQVPVQASPSPIGMSNTPSPGPVVGATKMPLQSGRRSKRDLSPEEQRRLQIRHAKVEKILKYSGLMTPRDKDFITRYQLSQIVTEDPYNEDFYFQVYKIIQRGGITSESNKGLIARAYLEHSGHRLGGRYKRTDIALQRMQSQVEKAVTVAKERPSKLKDQQAAAGNSSQDNKQANTVLGKISSTLNSKNPRRQLQIPRQQPSDPDALKDVTDSLTNVDLASSGSSSTGSSAAAVASKQRRRSSYAFNNGNGATNLNKSGGKKFILELIETVYEEILDLEANLRNGQQTDSTAMWEALHIDDSSYDVNPFISMLSFDKGIKIMPRIFNFLDKQQKLKILQKIFNELSHLQIIILSSYKTTPKPTLTQLKKVDLFQMIILKIIVSFLSNNSNFIEIMGLLLQLIRNNNVSFLTTSKIGLNLITILISRAALIKQDSSRSNILSSPEISTWNEIYDKLFTSLESKIQLIFPPREYNDHIMRLQNDKFMDEAYIWQFLASLALSGKLNHQRIIIDEVRDEIFATINEAETLQKKEKELSVLPQRSQELDTELKSIIYNKEKLYQDLNLFLNVMGLVYRDGEISELK
B4: recombinant Kap120-6xHis (natural protein, S. cerevisiae, UniProt Q02932 1-1032, looked up)
chain: T1 sequence (looked up)

Experiment [1] concerns the target B4. Nature of the experiment: pull-down.
Experiment [2] addresses T1, TAP-tagged Kap120. Nature of the experiment: co-IP.
In experiment [3] the target is FLAG-tagged Xrn1 (wild type) (S. cerevisiae, UniProt P22147 1-1528). Nature of the experiment: pull-down.
FLAG-tagged Xrn1 (wild type), sequence (P22147 whole entry): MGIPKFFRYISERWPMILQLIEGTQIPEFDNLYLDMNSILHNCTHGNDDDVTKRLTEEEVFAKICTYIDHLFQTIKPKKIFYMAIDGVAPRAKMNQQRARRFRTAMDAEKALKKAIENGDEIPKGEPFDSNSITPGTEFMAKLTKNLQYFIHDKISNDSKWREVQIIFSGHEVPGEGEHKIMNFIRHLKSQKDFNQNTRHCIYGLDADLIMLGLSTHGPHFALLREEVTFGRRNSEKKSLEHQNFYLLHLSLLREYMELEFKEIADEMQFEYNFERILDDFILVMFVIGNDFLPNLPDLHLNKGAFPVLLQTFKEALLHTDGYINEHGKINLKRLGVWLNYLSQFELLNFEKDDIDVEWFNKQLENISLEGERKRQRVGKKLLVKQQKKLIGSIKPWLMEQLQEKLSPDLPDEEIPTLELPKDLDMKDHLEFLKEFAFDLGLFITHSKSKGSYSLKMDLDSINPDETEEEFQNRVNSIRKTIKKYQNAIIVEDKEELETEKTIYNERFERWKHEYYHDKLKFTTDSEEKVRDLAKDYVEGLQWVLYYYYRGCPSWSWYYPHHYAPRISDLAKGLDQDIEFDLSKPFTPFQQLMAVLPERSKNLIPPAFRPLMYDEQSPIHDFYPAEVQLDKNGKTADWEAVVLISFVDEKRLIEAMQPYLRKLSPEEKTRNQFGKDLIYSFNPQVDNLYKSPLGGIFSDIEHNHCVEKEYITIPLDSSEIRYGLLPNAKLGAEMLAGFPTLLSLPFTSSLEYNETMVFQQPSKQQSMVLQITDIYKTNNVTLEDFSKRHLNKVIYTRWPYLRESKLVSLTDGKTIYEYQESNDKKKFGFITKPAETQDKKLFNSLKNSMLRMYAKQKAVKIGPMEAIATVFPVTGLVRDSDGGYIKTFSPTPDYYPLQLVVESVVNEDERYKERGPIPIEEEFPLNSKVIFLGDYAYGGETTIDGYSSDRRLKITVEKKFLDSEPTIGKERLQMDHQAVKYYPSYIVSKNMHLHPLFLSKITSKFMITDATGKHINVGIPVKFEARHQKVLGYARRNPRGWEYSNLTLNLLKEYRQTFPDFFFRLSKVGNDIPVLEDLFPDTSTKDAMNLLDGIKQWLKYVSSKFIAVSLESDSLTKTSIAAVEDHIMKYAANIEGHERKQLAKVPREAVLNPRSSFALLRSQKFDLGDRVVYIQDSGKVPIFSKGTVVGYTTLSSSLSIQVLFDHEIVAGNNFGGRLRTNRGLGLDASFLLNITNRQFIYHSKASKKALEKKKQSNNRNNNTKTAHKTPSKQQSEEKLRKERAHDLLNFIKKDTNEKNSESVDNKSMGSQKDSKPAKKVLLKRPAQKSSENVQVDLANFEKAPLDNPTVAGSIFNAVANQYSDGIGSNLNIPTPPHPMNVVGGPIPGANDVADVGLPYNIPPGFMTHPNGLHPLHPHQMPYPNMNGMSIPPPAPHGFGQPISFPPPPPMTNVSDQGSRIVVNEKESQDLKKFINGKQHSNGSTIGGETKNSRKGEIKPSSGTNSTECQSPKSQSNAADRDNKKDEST

Turning to “FLAG-tagged Xrn1^ΔNLS1/2 (from UniProt P22147 1-1528) (enzyme)”, the fold weaker than Xrn1^WT-Kap120 in experiment [1] is 4.5 fold.
Take B1: the “fold reduction of the co-IP in Xrn1^ΔNLS1/2 cells against WT cells” value in experiment [2] was roughly 5 fold.
For the molecule B2, in experiment [1], the binding result was “binds”.
On to B3, for which the “fold reduction of the co-IP in Xrn1^ΔNLS1/2 cells against WT cells” value in experiment [2] is roughly 5 fold.
For B4, the binding result in experiment [3] is “binds”.
